In patent US9657062B2, “Ghrelin analogues” (Zealand Pharma A/S, priority 2012, dated 2017):
[ ]: non-standard residue; d: D form. The star is where a group is joined. Octanoyl = CCCCCCCC(=O)*; Dap = NC[C@H](N)C(=O)O

molecular target: human growth hormone secretagogue receptor type 1a (human, UniProt Q92847 1-366); experiment: cell-based or functional assay
Sequence (Q92847 whole entry): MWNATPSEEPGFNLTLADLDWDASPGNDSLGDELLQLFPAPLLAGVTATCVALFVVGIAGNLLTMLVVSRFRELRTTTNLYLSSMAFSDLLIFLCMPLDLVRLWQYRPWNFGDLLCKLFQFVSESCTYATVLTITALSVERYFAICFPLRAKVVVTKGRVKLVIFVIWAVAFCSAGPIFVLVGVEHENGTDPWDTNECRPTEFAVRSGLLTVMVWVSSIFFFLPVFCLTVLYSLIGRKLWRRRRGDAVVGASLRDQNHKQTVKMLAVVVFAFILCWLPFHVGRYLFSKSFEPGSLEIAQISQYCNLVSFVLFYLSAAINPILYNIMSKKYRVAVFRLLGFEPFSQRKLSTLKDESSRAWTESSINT

Binder	EC50 (nM); Ca2+ induction in HEK293 cells stably expressing the human ghrelin receptor
PSSFLSPEHQRVQQRKESKKPPAKLQPR (Dap(N-octanoyl) at position 3; C-terminal amide (-NH2)) [H-PS-Dap(N-octanoyl)-FLSPEHQRVQQRKESKKPPAKLQPR-NH2]	0.193 nM
H-PS[Dap](Octanoyl)FLSPEHQRVQQRKESKKPPA-NH2 (SMILES CCCCCCCC(=O)NC[C@H](NC(=O)[C@H](CO)NC(=O)[C@@H]1CCCN1)C(=O)N[C@@H](Cc1ccccc1)C(=O)N[C@@H](CC(C)C)C(=O)N[C@@H](CO)C(=O)N1CCC[C@H]1C(=O)N[C@@H](CCC(=O)O)C(=O)N[C@@H](Cc1c[nH]cn1)C(=O)N[C@@H](CCC(N)=O)C(=O)N[C@@H](CCCNC(=N)N)C(=O)N[C@H](C(=O)N[C@@H](CCC(N)=O)C(=O)N[C@@H](CCC(N)=O)C(=O)N[C@@H](CCCNC(=N)N)C(=O)N[C@@H](CCCCN)C(=O)N[C@@H](CCC(=O)O)C(=O)N[C@@H](CO)C(=O)N[C@@H](CCCCN)C(=O)N[C@@H](CCCCN)C(=O)N1CCC[C@H]1C(=O)N1CCC[C@H]1C(=O)N[C@@H](C)C(N)=O)C(C)C) [H-PS-Dap(N-octanoyl)-FLSPEHQRVQQRKESKKPPA-NH2]	0.136 nM
H-PS[Dap](Octanoyl)FL-NH2 (SMILES CCCCCCCC(=O)NC[C@H](NC(=O)[C@H](CO)NC(=O)[C@@H]1CCCN1)C(=O)N[C@@H](Cc1ccccc1)C(=O)N[C@@H](CC(C)C)C(N)=O) [H-PS-Dap(N-octanoyl)-FL-NH2]	1.69 nM
H-PS[Dap](Octanoyl)FLS-NH2 (SMILES CCCCCCCC(=O)NC[C@H](NC(=O)[C@H](CO)NC(=O)[C@@H]1CCCN1)C(=O)N[C@@H](Cc1ccccc1)C(=O)N[C@@H](CC(C)C)C(=O)N[C@@H](CO)C(N)=O) [H-PS-Dap(N-octanoyl)-FLS-NH2]	1.2 nM
H-PS[Dap](Octanoyl)FLSP-NH2 (SMILES CCCCCCCC(=O)NC[C@H](NC(=O)[C@H](CO)NC(=O)[C@@H]1CCCN1)C(=O)N[C@@H](Cc1ccccc1)C(=O)N[C@@H](CC(C)C)C(=O)N[C@@H](CO)C(=O)N1CCC[C@H]1C(N)=O) [H-PS-Dap(N-octanoyl)-FLSP-NH2]	0.26 nM

The next lines start with the values.

EC50 (nM); Ca2+ induction in HEK293 cells stably expressing the human ghrelin receptor	Binder
0.164 nM	H-PS[NH‑CH(n-C10H21)‑C(O)]FLSPEHQRVQQRKES-NH2 [H-PS-[NH-CH(n-C10H21)-C(O)]-FLSPEHQRVQQRKES-NH2]
0.224 nM	H-PS[Dap](Octanoyl)FLSPEHSRVSSRKESKKPPAKLSPR-NH2 (SMILES CCCCCCCC(=O)NC[C@H](NC(=O)[C@H](CO)NC(=O)[C@@H]1CCCN1)C(=O)N[C@@H](Cc1ccccc1)C(=O)N[C@@H](CC(C)C)C(=O)N[C@@H](CO)C(=O)N1CCC[C@H]1C(=O)N[C@@H](CCC(=O)O)C(=O)N[C@@H](Cc1c[nH]cn1)C(=O)N[C@@H](CO)C(=O)N[C@@H](CCCNC(=N)N)C(=O)N[C@H](C(=O)N[C@@H](CO)C(=O)N[C@@H](CO)C(=O)N[C@@H](CCCNC(=N)N)C(=O)N[C@@H](CCCCN)C(=O)N[C@@H](CCC(=O)O)C(=O)N[C@@H](CO)C(=O)N[C@@H](CCCCN)C(=O)N[C@@H](CCCCN)C(=O)N1CCC[C@H]1C(=O)N1CCC[C@H]1C(=O)N[C@@H](C)C(=O)N[C@@H](CCCCN)C(=O)N[C@@H](CC(C)C)C(=O)N[C@@H](CO)C(=O)N1CCC[C@H]1C(=O)N[C@@H](CCCNC(=N)N)C(N)=O)C(C)C) [H-PS-Dap(N-octanoyl)-FLSPEHSRVSSRKESKKPPAKLSPR-NH2]
0.255 nM	H-PS[NH‑CH(n-C10H21)‑C(O)]FLSPEHQRVQQRKESKKPPA-NH2 [H-PS-[NH-CH(n-C10H21)-C(O)]-FLSPEHQRVQQRKESKKPPA-NH2]
